Measurements reported in patent US20240270846A1 (published 2024).

B1: CE115HA000/GLS3000 Q90D one-arm antibody (antibody, human IgG1, kappa, L234A L235A, N297A, name in Kabat numbering)
heavy: QVQLVESGGGVVQPGRSLRLSCAASGFTFSNAWMHWVRQAPGKGLEWVAQIKAKSNNYATYYAESVKGRFTISRDDSKNSLYLQMNSLKTEDTAVYYCRYVHYGAYYGVDAWGQGTTVTVSSASTKGPSVFPLAPSSKSTSGGTAALGCLVKDYFPEPVTVSWNSGALTSGVHTFPAVLQSSGLYSLSSVVTVPSSSLGTQTYICNVNHKPSNTKVDKKVEPKSCDKTHTCPPCPAPEAAGGPSVFLFPPKPKDTLMISRTPEVTCVVVDVSHEDPEVKFNWYVDGVEVHNAKTKPREEQYASTYRVVSVLTVLHQDWLNGKEYKCKVSNKALPAPIEKTISKAKGQPREPQVYTLPPSRCELTKNQVSLSCAVKGFYPSDIAVEWESNGQPENNYKTTPPVLDSDGSFFLVSKLTVDKSRWQQGNVFSCSVMHEALHNHYTQKSLSLSPDYKDDDDK
chain: EPKSSDKTHTCPPCPAPELLGGPSVFLFPPKPKDTLMISRTPEVTCVVVDVSHEDPEVKFNWYVDGVEVHNAKTKPREEQYNSTYRVVSVLTVLHQDWLNGKEYKCKVSNKALPAPIEKTISKAKGQPREPQVCTLPPSRDELTKNQVSLWCLVKGFYPSDIAVEWESNGQPENNYKTTPPVLDSDGSFFLYSKLTVDKSRWQQGNVFSCSVMHEALHNRYTQKSLSLSP
light: DIVMTQSPLSLPVTPGEPASISCRSSQSLVHSNRNTYLHWYQQKPGQAPRLLIYKVSNRFSGVPDRFSGSGSGTDFTLKISRVEAEDVGVYYCGDGTQVPYTFGQGTKLEIKRTVAAPSVFIFPPSDEQLKSGTASVVCLLNNFYPREAKVQWKVDNALQSGNSQESVTEQDSKDSTYSLSSTLTLSKADYEKHKVYACEVTHQGLSSPVTKSFNRGEC
notes: one-arm IgG1
B2: CE115HA000/GLS3000 Q90E one-arm antibody (antibody, human IgG1, kappa, L234A L235A, N297A, name in Kabat numbering)
heavy: QVQLVESGGGVVQPGRSLRLSCAASGFTFSNAWMHWVRQAPGKGLEWVAQIKAKSNNYATYYAESVKGRFTISRDDSKNSLYLQMNSLKTEDTAVYYCRYVHYGAYYGVDAWGQGTTVTVSSASTKGPSVFPLAPSSKSTSGGTAALGCLVKDYFPEPVTVSWNSGALTSGVHTFPAVLQSSGLYSLSSVVTVPSSSLGTQTYICNVNHKPSNTKVDKKVEPKSCDKTHTCPPCPAPEAAGGPSVFLFPPKPKDTLMISRTPEVTCVVVDVSHEDPEVKFNWYVDGVEVHNAKTKPREEQYASTYRVVSVLTVLHQDWLNGKEYKCKVSNKALPAPIEKTISKAKGQPREPQVYTLPPSRCELTKNQVSLSCAVKGFYPSDIAVEWESNGQPENNYKTTPPVLDSDGSFFLVSKLTVDKSRWQQGNVFSCSVMHEALHNHYTQKSLSLSPDYKDDDDK
chain: EPKSSDKTHTCPPCPAPELLGGPSVFLFPPKPKDTLMISRTPEVTCVVVDVSHEDPEVKFNWYVDGVEVHNAKTKPREEQYNSTYRVVSVLTVLHQDWLNGKEYKCKVSNKALPAPIEKTISKAKGQPREPQVCTLPPSRDELTKNQVSLWCLVKGFYPSDIAVEWESNGQPENNYKTTPPVLDSDGSFFLYSKLTVDKSRWQQGNVFSCSVMHEALHNRYTQKSLSLSP
light: DIVMTQSPLSLPVTPGEPASISCRSSQSLVHSNRNTYLHWYQQKPGQAPRLLIYKVSNRFSGVPDRFSGSGSGTDFTLKISRVEAEDVGVYYCGEGTQVPYTFGQGTKLEIKRTVAAPSVFIFPPSDEQLKSGTASVVCLLNNFYPREAKVQWKVDNALQSGNSQESVTEQDSKDSTYSLSSTLTLSKADYEKHKVYACEVTHQGLSSPVTKSFNRGEC
notes: one-arm IgG1
B3: CE115HA000/GLS3000 Q93A one-arm antibody (antibody, human IgG1, kappa, L234A L235A, N297A, name in Kabat numbering)
heavy: QVQLVESGGGVVQPGRSLRLSCAASGFTFSNAWMHWVRQAPGKGLEWVAQIKAKSNNYATYYAESVKGRFTISRDDSKNSLYLQMNSLKTEDTAVYYCRYVHYGAYYGVDAWGQGTTVTVSSASTKGPSVFPLAPSSKSTSGGTAALGCLVKDYFPEPVTVSWNSGALTSGVHTFPAVLQSSGLYSLSSVVTVPSSSLGTQTYICNVNHKPSNTKVDKKVEPKSCDKTHTCPPCPAPEAAGGPSVFLFPPKPKDTLMISRTPEVTCVVVDVSHEDPEVKFNWYVDGVEVHNAKTKPREEQYASTYRVVSVLTVLHQDWLNGKEYKCKVSNKALPAPIEKTISKAKGQPREPQVYTLPPSRCELTKNQVSLSCAVKGFYPSDIAVEWESNGQPENNYKTTPPVLDSDGSFFLVSKLTVDKSRWQQGNVFSCSVMHEALHNHYTQKSLSLSPDYKDDDDK
chain: EPKSSDKTHTCPPCPAPELLGGPSVFLFPPKPKDTLMISRTPEVTCVVVDVSHEDPEVKFNWYVDGVEVHNAKTKPREEQYNSTYRVVSVLTVLHQDWLNGKEYKCKVSNKALPAPIEKTISKAKGQPREPQVCTLPPSRDELTKNQVSLWCLVKGFYPSDIAVEWESNGQPENNYKTTPPVLDSDGSFFLYSKLTVDKSRWQQGNVFSCSVMHEALHNRYTQKSLSLSP
light: DIVMTQSPLSLPVTPGEPASISCRSSQSLVHSNRNTYLHWYQQKPGQAPRLLIYKVSNRFSGVPDRFSGSGSGTDFTLKISRVEAEDVGVYYCGQGTAVPYTFGQGTKLEIKRTVAAPSVFIFPPSDEQLKSGTASVVCLLNNFYPREAKVQWKVDNALQSGNSQESVTEQDSKDSTYSLSSTLTLSKADYEKHKVYACEVTHQGLSSPVTKSFNRGEC
notes: one-arm IgG1
B4: CE115HA000/GLS3000 Q93D one-arm antibody (antibody, human IgG1, kappa, L234A L235A, N297A, name in Kabat numbering)
heavy: QVQLVESGGGVVQPGRSLRLSCAASGFTFSNAWMHWVRQAPGKGLEWVAQIKAKSNNYATYYAESVKGRFTISRDDSKNSLYLQMNSLKTEDTAVYYCRYVHYGAYYGVDAWGQGTTVTVSSASTKGPSVFPLAPSSKSTSGGTAALGCLVKDYFPEPVTVSWNSGALTSGVHTFPAVLQSSGLYSLSSVVTVPSSSLGTQTYICNVNHKPSNTKVDKKVEPKSCDKTHTCPPCPAPEAAGGPSVFLFPPKPKDTLMISRTPEVTCVVVDVSHEDPEVKFNWYVDGVEVHNAKTKPREEQYASTYRVVSVLTVLHQDWLNGKEYKCKVSNKALPAPIEKTISKAKGQPREPQVYTLPPSRCELTKNQVSLSCAVKGFYPSDIAVEWESNGQPENNYKTTPPVLDSDGSFFLVSKLTVDKSRWQQGNVFSCSVMHEALHNHYTQKSLSLSPDYKDDDDK
chain: EPKSSDKTHTCPPCPAPELLGGPSVFLFPPKPKDTLMISRTPEVTCVVVDVSHEDPEVKFNWYVDGVEVHNAKTKPREEQYNSTYRVVSVLTVLHQDWLNGKEYKCKVSNKALPAPIEKTISKAKGQPREPQVCTLPPSRDELTKNQVSLWCLVKGFYPSDIAVEWESNGQPENNYKTTPPVLDSDGSFFLYSKLTVDKSRWQQGNVFSCSVMHEALHNRYTQKSLSLSP
light: DIVMTQSPLSLPVTPGEPASISCRSSQSLVHSNRNTYLHWYQQKPGQAPRLLIYKVSNRFSGVPDRFSGSGSGTDFTLKISRVEAEDVGVYYCGQGTDVPYTFGQGTKLEIKRTVAAPSVFIFPPSDEQLKSGTASVVCLLNNFYPREAKVQWKVDNALQSGNSQESVTEQDSKDSTYSLSSTLTLSKADYEKHKVYACEVTHQGLSSPVTKSFNRGEC
notes: one-arm IgG1
B5: CE115HA000/GLS3000 Q93E one-arm antibody (antibody, human IgG1, kappa, L234A L235A, N297A, name in Kabat numbering)
heavy: QVQLVESGGGVVQPGRSLRLSCAASGFTFSNAWMHWVRQAPGKGLEWVAQIKAKSNNYATYYAESVKGRFTISRDDSKNSLYLQMNSLKTEDTAVYYCRYVHYGAYYGVDAWGQGTTVTVSSASTKGPSVFPLAPSSKSTSGGTAALGCLVKDYFPEPVTVSWNSGALTSGVHTFPAVLQSSGLYSLSSVVTVPSSSLGTQTYICNVNHKPSNTKVDKKVEPKSCDKTHTCPPCPAPEAAGGPSVFLFPPKPKDTLMISRTPEVTCVVVDVSHEDPEVKFNWYVDGVEVHNAKTKPREEQYASTYRVVSVLTVLHQDWLNGKEYKCKVSNKALPAPIEKTISKAKGQPREPQVYTLPPSRCELTKNQVSLSCAVKGFYPSDIAVEWESNGQPENNYKTTPPVLDSDGSFFLVSKLTVDKSRWQQGNVFSCSVMHEALHNHYTQKSLSLSPDYKDDDDK
chain: EPKSSDKTHTCPPCPAPELLGGPSVFLFPPKPKDTLMISRTPEVTCVVVDVSHEDPEVKFNWYVDGVEVHNAKTKPREEQYNSTYRVVSVLTVLHQDWLNGKEYKCKVSNKALPAPIEKTISKAKGQPREPQVCTLPPSRDELTKNQVSLWCLVKGFYPSDIAVEWESNGQPENNYKTTPPVLDSDGSFFLYSKLTVDKSRWQQGNVFSCSVMHEALHNRYTQKSLSLSP
light: DIVMTQSPLSLPVTPGEPASISCRSSQSLVHSNRNTYLHWYQQKPGQAPRLLIYKVSNRFSGVPDRFSGSGSGTDFTLKISRVEAEDVGVYYCGQGTEVPYTFGQGTKLEIKRTVAAPSVFIFPPSDEQLKSGTASVVCLLNNFYPREAKVQWKVDNALQSGNSQESVTEQDSKDSTYSLSSTLTLSKADYEKHKVYACEVTHQGLSSPVTKSFNRGEC
notes: one-arm IgG1
B6: CE115HA000/GLS3000 R54D one-arm antibody (antibody, human IgG1, kappa, L234A L235A, N297A, name in Kabat numbering)
heavy: QVQLVESGGGVVQPGRSLRLSCAASGFTFSNAWMHWVRQAPGKGLEWVAQIKAKSNNYATYYAESVKGRFTISRDDSKNSLYLQMNSLKTEDTAVYYCRYVHYGAYYGVDAWGQGTTVTVSSASTKGPSVFPLAPSSKSTSGGTAALGCLVKDYFPEPVTVSWNSGALTSGVHTFPAVLQSSGLYSLSSVVTVPSSSLGTQTYICNVNHKPSNTKVDKKVEPKSCDKTHTCPPCPAPEAAGGPSVFLFPPKPKDTLMISRTPEVTCVVVDVSHEDPEVKFNWYVDGVEVHNAKTKPREEQYASTYRVVSVLTVLHQDWLNGKEYKCKVSNKALPAPIEKTISKAKGQPREPQVYTLPPSRCELTKNQVSLSCAVKGFYPSDIAVEWESNGQPENNYKTTPPVLDSDGSFFLVSKLTVDKSRWQQGNVFSCSVMHEALHNHYTQKSLSLSPDYKDDDDK
chain: EPKSSDKTHTCPPCPAPELLGGPSVFLFPPKPKDTLMISRTPEVTCVVVDVSHEDPEVKFNWYVDGVEVHNAKTKPREEQYNSTYRVVSVLTVLHQDWLNGKEYKCKVSNKALPAPIEKTISKAKGQPREPQVCTLPPSRDELTKNQVSLWCLVKGFYPSDIAVEWESNGQPENNYKTTPPVLDSDGSFFLYSKLTVDKSRWQQGNVFSCSVMHEALHNRYTQKSLSLSP
light: DIVMTQSPLSLPVTPGEPASISCRSSQSLVHSNRNTYLHWYQQKPGQAPRLLIYKVSNDFSGVPDRFSGSGSGTDFTLKISRVEAEDVGVYYCGQGTQVPYTFGQGTKLEIKRTVAAPSVFIFPPSDEQLKSGTASVVCLLNNFYPREAKVQWKVDNALQSGNSQESVTEQDSKDSTYSLSSTLTLSKADYEKHKVYACEVTHQGLSSPVTKSFNRGEC
notes: one-arm IgG1

Each binder was assayed against T1, CD3 epsilon homodimer protein (UniProt P07766 23-126) (assay: SPR (Biacore T200), CD3e homodimer on CM4 chip, antibody as analyte; KD ratio vs unaltered GLS3000;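 note: CD3 epsilon homodimer amine-coupled to the sensor surface, antibodies injected as analyte at 25 °C with HBS-EP+ running buffer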).
T1 construct: also called CD3 (CD3 epsilon)
T1 sequence (P07766 23-126): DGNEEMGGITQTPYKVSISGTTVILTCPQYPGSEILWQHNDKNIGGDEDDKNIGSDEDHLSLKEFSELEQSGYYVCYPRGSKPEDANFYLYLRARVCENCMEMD
For B1, the “KD ratio to GLS3000” value was 11.1 ratio. With B2 the “KD ratio to GLS3000” value was 0.91 ratio. B3 was tested, and the “KD ratio to GLS3000” value was 0.65 ratio. For B4, the “KD ratio to GLS3000” value was 0.72 ratio. B5 was tested, and the “KD ratio to GLS3000” value was 1.05 ratio. In the case of B6, the “KD ratio to GLS3000” value is reported as 1.8 ratio.
